Laboratory results: patent US20220041756A1 (Chugai, published 2022)

B1: GPC3 ERY10-1 (bispecific antibody, human IgG1, kappa, L234A L235A, N297A)
heavy 1: QVQLVQSGAEVKKPGASVKVSCKASGYTFTDYEMHWIRQPPGQGLEWIGAIDPKTGDTAYSQKFKGRVTLTADKSTSTAYMELSSLTSEDTAVYYCTRFYSYTYWGQGTLVTVSSASTKGPSVFPLAPSSKSTSGGTAALGCLVKDYFPEPVTVSWNSGALTSGVHTFPAVLQSSGLYSLSSVVTVPSSSLGTQTYICNVNHKPSNTKVDKKVEPKSCDKTHTCPPCPAPEAAGGPSVFLFPPKPKDTLMISRTPEVTCVVVDVSHEDPEVKFNWYVDGVEVHNAKTKPREEQYASTYRVVSVLTVLHQDWLNGKEYKCKVSNKALPAPIEKTISKAKGQPREPQVYTLPPSRCELTKNQVSLSCAVKGFYPSDIAVEWESNGQPENNYKTTPPVLDSDGSFFLVSKLTVDKSRWQQGNVFSCSVMHEALHNHYTQKSLSLSPGGGGSGGGGSQAVVTQESALTTSPGETVTLTCRSSTGAVTTSNYANWVQEKPDHLFTGLIGGTNKRAPGVPARFSGSLIGDKAALTITGAQTEDEAIYFCALWYSNLWVFGGGTKLTVLGGGGSGGGGSGGGGSEVKLLESGGGLVQPKGSLKLSCAASGFTFNTYAMNWVRQAPGKGLEWVARIRSKYNNYATYYADSVKDRFTISRDDSQSILYLQMNNLKTEDTAMYYCVRHGNFGNSYVSWFAYWGQGTLVTVSADYKDDDDK
heavy 2: QVQLVQSGAEVKKPGASVKVSCKASGYTFTDYEMHWIRQPPGQGLEWIGAIDPKTGDTAYSQKFKGRVTLTADKSTSTAYMELSSLTSEDTAVYYCTRFYSYTYWGQGTLVTVSSASTKGPSVFPLAPSSKSTSGGTAALGCLVKDYFPEPVTVSWNSGALTSGVHTFPAVLQSSGLYSLSSVVTVPSSSLGTQTYICNVNHKPSNTKVDKKVEPKSCDKTHTCPPCPAPEAAGGPSVFLFPPKPKDTLMISRTPEVTCVVVDVSHEDPEVKFNWYVDGVEVHNAKTKPREEQYASTYRVVSVLTVLHQDWLNGKEYKCKVSNKALPAPIEKTISKAKGQPREPQVCTLPPSRDELTKNQVSLWCLVKGFYPSDIAVEWESNGQPENNYKTTPPVLDSDGSFFLYSKLTVDKSRWQQGNVFSCSVMHEALHNHYTQKSLSLSPHHHHHHHH
light: DIVMTQSPLSLPVTPGEPASISCRSSQSLVHSNRNTYLHWYQQKPGQAPRLLIYKVSNRFSGVPDRFSGSGSGTDFTLKISRVEAEDVGVYYCSQNTHVPPTFGQGTKLEIKRTVAAPSVFIFPPSDEQLKSGTASVVCLLNNFYPREAKVQWKVDNALQSGNSQESVTEQDSKDSTYSLSSTLTLSKADYEKHKVYACEVTHQGLSSPVTKSFNRGEC
notes: Anti-GPC3 IgG backbone with silent Fc and knobs-into-holes CH3; also called GPC ERY10-1
B2: GPC3 ERY9-1 (bispecific antibody, human IgG1, kappa, L234A L235A, N297A)
heavy: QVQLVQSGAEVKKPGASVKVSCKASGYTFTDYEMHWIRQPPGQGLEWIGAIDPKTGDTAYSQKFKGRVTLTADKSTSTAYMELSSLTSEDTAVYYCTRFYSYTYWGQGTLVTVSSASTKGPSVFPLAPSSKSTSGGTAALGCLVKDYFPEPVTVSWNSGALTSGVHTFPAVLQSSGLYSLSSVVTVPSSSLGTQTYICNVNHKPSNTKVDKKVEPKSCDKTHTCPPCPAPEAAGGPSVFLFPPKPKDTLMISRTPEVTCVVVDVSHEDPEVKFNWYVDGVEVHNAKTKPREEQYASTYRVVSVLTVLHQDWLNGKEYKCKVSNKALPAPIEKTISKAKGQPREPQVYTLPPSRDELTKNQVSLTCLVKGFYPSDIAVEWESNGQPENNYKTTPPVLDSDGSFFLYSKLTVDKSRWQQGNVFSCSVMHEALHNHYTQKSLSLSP
light 1: DIVMTQSPLSLPVTPGEPASISCRSSQSLVHSNRNTYLHWYQQKPGQAPRLLIYKVSNRFSGVPDRFSGSGSGTDFTLKISRVEAEDVGVYYCSQNTHVPPTFGQGTKLEIKRTVAAPSVFIFPPSDEQLKSGTASVVCLLNNFYPREAKVQWKVDNALQSGNSQESVTEQDSKDSTYSLSSTLTLSKADYEKHKVYACEVTHQGLSSPVTKSFNRGECHHHHHHHH
light 2: DIVMTQSPLSLPVTPGEPASISCRSSQSLVHSNRNTYLHWYQQKPGQAPRLLIYKVSNRFSGVPDRFSGSGSGTDFTLKISRVEAEDVGVYYCSQNTHVPPTFGQGTKLEIKRTVAAPSVFIFPPSDEQLKSGTASVVCLLNNFYPREAKVQWKVDNALQSGNSQESVTEQDSKDSTYSLSSTLTLSKADYEKHKVYACEVTHQGLSSPVTKSFNRGECGGGGSGGGGSQAVVTQESALTTSPGETVTLTCRSSTGAVTTSNYANWVQEKPDHLFTGLIGGTNKRAPGVPARFSGSLIGDKAALTITGAQTEDEAIYFCALWYSNLWVFGGGTKLTVLGGGGSGGGGSGGGGSEVKLLESGGGLVQPKGSLKLSCAASGFTFNTYAMNWVRQAPGKGLEWVARIRSKYNNYATYYADSVKDRFTISRDDSQSILYLQMNNLKTEDTAMYYCVRHGNFGNSYVSWFAYWGQGTLVTVSADYKDDDDK
notes: Anti-GPC3 IgG backbone with silent Fc

Molecular target: T1, human CD3 epsilon on human CD3 epsilon-expressing Ba/F3 cells (human, UniProt P07766 23-207)
T1 construct: The Ba/F3 transfectant is not itself tied to that entry; also called CD3/BaF; CD3 epsilon chain
T1 sequence (P07766 23-207 limits assumed): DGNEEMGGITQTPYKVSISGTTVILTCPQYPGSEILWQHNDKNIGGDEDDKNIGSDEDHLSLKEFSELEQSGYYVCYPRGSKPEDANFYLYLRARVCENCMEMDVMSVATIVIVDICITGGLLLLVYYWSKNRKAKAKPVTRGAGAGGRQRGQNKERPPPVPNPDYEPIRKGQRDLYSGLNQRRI
Assay: flow cytometry on human CD3 epsilon-expressing Ba/F3 cells, FITC-labeled secondary antibody, calibration curve
Procedure: After washing these cells, an FITC-labeled secondary antibody was added for further reaction. After washing the cells, the fluorescent intensity of the label on the cells was measured using Epics XL flow cytometer (Beckman coulter) to prepare a calibration curve for each antibody.
Plasma was prepared from the blood and diluted appropriately. […] The plasma concentration of each antibody was calculated using determined values and the calibration curves described above.

Row | Binder | binding result
1 | B1 | binds
2 | B2 | binds
